{"source": "paper PMC7710607", "biological_target": "ACSL1 (UniProt P41216)", "test": "co-IP of tagged proteins, blot", "conditions": "reference: wild type TBK1; sites S172", "data": [{"substance": "TBK1 (flag-human TBK1) (from UniProt Q9UHD2) S172A", "values": [{"measurement": "binding against the reference", "value": "stronger"}]}]}
